The target of one data set is T1, paPpx(1–506) (Pseudomonas aeruginosa, UniProt Q9ZN70).
T1 construct: gene ppx
The settings on record: 8 μM polyP65, 5 mM Mg2+, Tris-HCl pH 8.0, 37°C; nonessential activator, sigmoid curve.

The test system of data set [1] is Nc1ncnc2c1ncn2[C@@H]1O[C@H](COP(=O)(O)OP(=O)(O)O)[C@@H](O)[C@H]1O. Kind of data set: phosphotransferase activity, ATP by luciferin-luciferase. The data set is classed as biochemical, Pseudomonas aeruginosa. The conditions noted are these: polyP25 or polyP65 as phosphate donor, 5 mM Mg2+, Tris-HCl pH 8.0, 37°C, one rounded value for both variants and both polyP, data not shown.

T1 sequence (Q9ZN70 whole entry): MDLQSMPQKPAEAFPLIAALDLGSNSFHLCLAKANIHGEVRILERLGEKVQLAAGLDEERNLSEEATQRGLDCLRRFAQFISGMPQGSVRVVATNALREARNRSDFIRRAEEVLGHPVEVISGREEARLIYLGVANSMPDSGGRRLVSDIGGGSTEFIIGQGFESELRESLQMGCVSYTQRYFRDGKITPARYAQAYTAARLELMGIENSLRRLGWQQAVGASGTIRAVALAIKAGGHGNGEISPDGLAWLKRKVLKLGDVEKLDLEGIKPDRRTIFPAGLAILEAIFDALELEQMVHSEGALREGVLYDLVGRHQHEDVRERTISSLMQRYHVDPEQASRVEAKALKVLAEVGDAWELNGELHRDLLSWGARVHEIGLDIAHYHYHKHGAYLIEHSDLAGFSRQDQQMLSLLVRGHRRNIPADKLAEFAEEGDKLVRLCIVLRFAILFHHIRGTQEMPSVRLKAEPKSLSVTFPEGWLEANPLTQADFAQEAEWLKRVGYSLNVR

Consider `N` [NH4^+], for which, on paPpx(1–506), the “K 0.5(app)NH4^+” value is 10 ± 0.4 mM.

As for “paPpx(1–506) (Pseudomonas aeruginosa PAO1)”, the Km in data set [1] was 90 µM.

As to “N-paPpx(1–314) (Pseudomonas aeruginosa PAO1)”, in data set [1], the Km was found to be 90 µM.
